Source: patent US9028829B2, “Uniform field magnetization and targeting of therapeutic formulations” (The Children's Hospital of Philadelphia, priority 2004, dated 2015)

Test system: Pronase
Assay: Protection of MNP-encapsulated catalase from proteolysis
Type: in vitro ADME
Details: by 30 mins
Description: Protection and activity of MNP-encapsulated catalase. The capacity of MNP to protect the catalase cargo was measured using a proteolysis assay. Samples were incubated for 60 min at 37° C. with shaking in a 0.2 wt % buffered Pronase, a robust mixture of proteinases which completely digests proteins into individual amino acids. The amount of catalase retained by MNP post proteolysis was determined following MNP separation by centrifugation (20 min, 4° C. at […]) using the radioactivity assay described above. The enzymatic activity of MNP-bound catalase retained over time was measured in comparison with free catalase.

B1: free catalase: bovine liver catalase, not encapsulated (protein, UniProt P00432 2-527, looked up)
Catalase: ADNRDPASDQMKHWKEQRAAQKPDVLTTGGGNPVGDKLNSLTVGPRGPLLVQDVVFTDEMAHFDRERIPERVVHAKGAGAFGYFEVTHDITRYSKAKVFEHIGKRTPIAVRFSTVAGESGSADTVRDPRGFAVKFYTEDGNWDLVGNNTPIFFIRDALLFPSFIHSQKRNPQTHLKDPDMVWDFWSLRPESLHQVSFLFSDRGIPDGHRHMNGYGSHTFKLVNANGEAVYCKFHYKTDQGIKNLSVEDAARLAHEDPDYGLRDLFNAIATGNYPSWTLYIQVMTFSEAEIFPFNPFDLTKVWPHGDYPLIPVGKLVLNRNPVNYFAEVEQLAFDPSNMPPGIEPSPDKMLQGRLFAYPDTHRHRLGPNYLQIPVNCPYRARVANYQRDGPMCMMDNQGGAPNYYPNSFSAPEHQPSALEHRTHFSGDVQRFNSANDDNVTQVRTFYLKVLNEEQRKRLCENIAGHLKDAQLFIQKKAVKNFSDVHPEYGSRIQALLDKYNEEKPKNAVHTYVQHGSHLSAREKANL
catalase activity on exposure to proteolytic enzymes: total deactivation
